From publication PMC9771723 (iScience, 2022)

Target: the molecule itself
Assay: cross-linking

## MSLLTEVETPIRNEWGCRCNDSSDPLVVAASIIGILHLILWILDRL (domain or fragment) [M2(1-46) of influenza A/Hong Kong/8/68 (H3N2) in nanodiscs]
  stoichiometry N: 4
